Assay [1] has as its target full-length strep-tagged POLD3 (human) (UniProt Q15054). The experiment in a line: BLI; POLD3 immobilised on Streptavidin (SAX) biosensors, BLItz, 1x PBS and 0.02% Tween.
Assay [2] has as its target GST-tagged MCM2 (human) (UniProt P49736). Kind of assay: BLI; MCM2 immobilised on Anti-GST biosensors, BLItz, 1x PBS and 0.02% Tween; analyte 0-50.0 nM. For orientation: In BLI a coated tip is dipped into the sample, and binding shifts an interference pattern.

Sequence of GST-tagged MCM2 (human) (P49736 whole entry): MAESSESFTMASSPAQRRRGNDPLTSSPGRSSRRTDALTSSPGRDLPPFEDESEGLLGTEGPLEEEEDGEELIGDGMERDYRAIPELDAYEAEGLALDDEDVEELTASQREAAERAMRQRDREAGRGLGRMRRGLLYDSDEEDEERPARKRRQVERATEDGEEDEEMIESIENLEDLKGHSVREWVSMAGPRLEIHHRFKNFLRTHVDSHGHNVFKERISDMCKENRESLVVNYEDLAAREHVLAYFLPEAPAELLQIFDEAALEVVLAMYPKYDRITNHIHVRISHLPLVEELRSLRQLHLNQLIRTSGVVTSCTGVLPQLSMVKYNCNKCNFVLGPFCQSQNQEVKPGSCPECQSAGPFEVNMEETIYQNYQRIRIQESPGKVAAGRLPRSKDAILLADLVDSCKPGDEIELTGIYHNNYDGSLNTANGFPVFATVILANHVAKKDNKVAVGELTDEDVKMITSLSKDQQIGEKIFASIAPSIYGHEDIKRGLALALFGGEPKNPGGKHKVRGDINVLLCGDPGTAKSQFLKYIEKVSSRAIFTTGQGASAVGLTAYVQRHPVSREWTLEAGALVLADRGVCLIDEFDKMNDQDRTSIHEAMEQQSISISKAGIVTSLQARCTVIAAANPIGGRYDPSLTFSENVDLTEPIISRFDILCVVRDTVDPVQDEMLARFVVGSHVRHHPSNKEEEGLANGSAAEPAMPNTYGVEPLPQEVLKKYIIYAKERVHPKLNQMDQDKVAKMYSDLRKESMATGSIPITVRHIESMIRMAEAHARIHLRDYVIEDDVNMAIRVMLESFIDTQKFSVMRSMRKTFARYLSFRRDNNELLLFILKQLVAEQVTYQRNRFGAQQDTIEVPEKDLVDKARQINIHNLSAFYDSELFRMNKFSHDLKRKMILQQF
Sequence of full-length strep-tagged POLD3 (human) (Q15054 whole entry): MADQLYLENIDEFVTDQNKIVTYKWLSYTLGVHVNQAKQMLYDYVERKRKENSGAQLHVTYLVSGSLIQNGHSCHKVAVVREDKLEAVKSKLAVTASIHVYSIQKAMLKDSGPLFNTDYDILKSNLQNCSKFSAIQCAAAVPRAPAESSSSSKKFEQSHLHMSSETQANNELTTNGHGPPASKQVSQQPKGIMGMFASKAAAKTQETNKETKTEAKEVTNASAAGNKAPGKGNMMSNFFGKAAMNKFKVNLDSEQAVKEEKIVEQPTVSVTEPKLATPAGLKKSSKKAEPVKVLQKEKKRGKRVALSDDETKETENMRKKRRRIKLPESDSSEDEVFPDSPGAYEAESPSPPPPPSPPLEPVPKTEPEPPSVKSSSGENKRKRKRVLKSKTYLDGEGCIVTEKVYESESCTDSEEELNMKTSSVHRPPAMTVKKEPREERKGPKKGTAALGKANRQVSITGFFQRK

As to “histone (H3.1-H4)2 tetramer (from UniProt P68431 1-136; P62805 1-103) (complex; other documents disagree on this pair)”, the Kd (in general, the free concentration of one partner at which half of the binding sites on the other are occupied at equilibrium, for simple one-to-one binding) is 2.7 nM in assay [1] and 2.17 nM in assay [2].

The values above are taken from publication PMC13156308.
